Assay: soluble on expression in E. coli; label from the status in PepcDB or PDB records

| Sequence | soluble on expression in E. coli |
| --- | --- |
| MIELDQTNIPKHVAIIMDGNGRWAKQKNKMRIFGHTNGVTAVRKAVAYARQIGVEVLTLYAFSSENWSRPEQEISALMSLFMQALDREVKKLHKNNICLKIIGDVSRFSETLQEKIKKAENLTEKNTALTLNIAANYGGCWDIIQAAKQIAEKVKKEEMSVSDINNSTFQHHLATQNAPPVDLLIRTSGEQRISNFLLWQIAYAELYFSDVLWPDFNQLEFNRAIASYQQRHRRFGGTE | not soluble |
| MGSDKIHHHHHHMSVETLPIILKELRLVSLLPHWQPLAEKAREQHWPVERYLAELCQLELSCREQKRLHRGLKEATLPIGKYLDTYDFSEVEGLSKKQVWHLADNAEWLKTGDNILLFGASGLGKTHIAAGLGYRLVEQGHRVKFMSASLLVQHLQKAKEELRLPEALVKLDRFAVLILDDLGYVQKSTEETSVLFELIAHRYERYSLIITSNQSFEDWDKLFSDTVMTVAAIDRLIHHAKILQCKGESYRRKEAQNKLN | not soluble |
| MAHHHHHHMQMNSYAGGYTTHNRSYAAMVPPPMPMPPGWEMAYTPNGEIYYIDHNTRTTHWQLPAEYTMQQPVCSYRGPQRQRRGIDRSKAKTKMCMNIENGGTCSYGANCAFAHSSEELSTHPHFNSAPDAGYSAK | not soluble |
| ISEFDYSARFVLSDGKRKILRYPNPTNSLSSDVYYNGQILGDIWGYKTVGIAQTQEEMNAHLANGGTPNWGTNWGAGDVMYANLDGKEGVNNGSNTLEDHGDLTIIGNNTPRYNFGLTLTGAWKGFDFSVFLQGVMKRDYWLDGPYFWGANGGLWQSTAFKEHMDYWRPEGDPLGANTNAYYPKPYFNTDKNQKVQSGYLQNAAYCRLKNAQIGYTLPKTWTRKAAMESVRVYVSGDNLVTFSGISGVFDPELLGSDWGDGKLYPLQRTISIGLNVNF | not soluble |
| MIEFSENSHRKSLIEELPRIVERGEKEAQKILDGLSKSQRITLQTNELVLPTKAIGELNKFYGQTIKTENNNEFLNRLIYGDNLLAMQAFLAGDPETGLPSMRGKIDLIYIDPPFDSKANYRTKIHLPTADVEQMPSVIEQFAYSDTWKDGTKSYLEMIVPRLVLMKELLSEKGSIYVHIDWHVGHYVKVIMDEIFGRENFVNEIVWKKTNSPKAQSKGFGTQHDVLYIYRKTPQFIFNQIKKEPDEDYLKSYVYDDNDGRGPYQTVALVAGGIQRSENRKIFEFHGVRAPWLYSLENLERFWSDGRIFKTKTGYRLKVYLKDIALRLYLIYGLTRK | not soluble |
| SNAMHILVTGFAPFDNQNINPSWEAVTQLEDIIGTHTIDKLKLPTSFKKVDNIINKTLASNHYDVVLAIGQAGGRNAITPERVAINIDDARIPDNDDFQPIDQAIHLDGAPAYFSNLPVKAMTQSIINQGLPGALSNSAGTFVCNHTLYHLGYLQDKHYPHLRFGFIHVPYIPEQVIGKPDTPSMPLEKIVAGLTAAIEAISNDEDLHLALGTTE | soluble |
| MAHHHHHHMGKLCWLQISIGGKPAKEKILLELFDDITPKTCANFRALCTGNEGKVTDETQIPMTYKGSTFHRIIAGFMIQGGDFTKHNGTGGVSIYGERFDDENFDVPCDKAGLLAMANAGPNTNGSQFFITVNPAQHLTGRHVVFGKVVRGMNTVRALEHTETGANDKPVKPCVIVDCGVTDTLPEPEPQVGGDTFPDYPEDCTPSLTDAELLDVGEEIRQIGNKLFKASDFENAIQKYEKAARFVKTINKTTANDVAVNEKLIACYNNTAACAIKLGQWSEARNAASRVLELDNSNAKALFRRGFASLSAGDSESAVADFTKAQKLDPDNTEIVTVLQQAKEAEKVRTAKLAAGLKKMFS | not soluble |
| MGSDKIHHHHHHMDRKMNFVMISPHFPANFETFAHRLYENGINTLGIADTPYEQLSQGLRDHLTEYYRVDNMEDYDQVYRAVAYFAHKYGRIDRIESHNEYWLELDAHLRTDFNVFGYKNEDMLSIKTKARMKEIFRKTGIKVARGRVFTSTEDARALTKELGFPVIIKPNSGVGASDTYKIKSAEELEDFFGYQNPTVDYIMEEFIDGDIVTFDGLTDHEGNIVFYSSLEYSEAVLDTVEKDNDMFYYVPRDISPELIKLGEQCVEAFNVKERFFHFEFFRIKKTKDLMALEVNCRPPGGLTIDMWDYANDFDVFNEYAHIVKDNRFEAHITRPYNVVYIARKANKHYAHSIEDIETKFGHHIIEIESVPGIFAKIMGEVGILARTETMNEMRDIICFAHAKI | not soluble |
| SLSRRKPNPVIVADIRQAEGALAEIATIDRKVGEIEAQMNEAIDAAKARASQKSAPLLARRKELEDGVATFATLNKTEMFKDRKSLDLGFGTIGFRLSTQIVQMSKITKDMTLERLRQFGISEGIRIKEDVNKEAMQGWPDERLEMVGLKRRTTDAFYIEINREEVADTAA | soluble |
| IPGPGFTAGAQGSCSLRCGAQDGLCSCHPTCSGLGTCCEDFLDYCLEILPSSGSMMGGKDFVVQHLKWTDP | soluble |
| MAIYILEDQIIQAKALEVLLTNILHSRNIYNETIHLFSRSDELLQVAHQDAQLNIFFLDIQMNNHIQAGFEVAKEIRKTDSESLIVFISTHTELVLTSYKYMVSALQFIQKNVDFLDFQKEVETCVDAYIQQKENIKTKSEYIIINLKASSIKMDINDIYFFQTEYDHRVSMVGKNFKREFYGTLSKIEQLHPDLIRVHQSIIINKKYASKLNYKTHLLTMRDGTEVPVSRRYYTQVKALFLT | not soluble |
| MGSDKIHHHHHHKVSEAEAAKLGTSLTPMGGEMAASADGSIPAWNGGITAAPAGYKKGDHHPDPYSADKVEYTVTKANLEQYKSLLTPGQIKLFELYPDTFKMNVYKTQRSASAPQWVYDATKANASRAELVQGGNGVVGAAVGIPFPIPQNGLEAIWNHILRFRGVDIETQRNQAAPAKGGGYTLVELSEQLRFEYSQPDMTPEKLKENNTLALFKQVVTQPARLAGTALLVKETLDQEALPRQAWTYNTGQRRVRKAPNVAFDTPGTVSDGLRTTDDYDMFNGSPSRYNWELVGKKEILIPYNDYKLHSDKVKYDDILTPGHINPDLVRWEKHRVWEVKATLKDGMRHIYKTRVFFLDEDSWQVSATDMYDNRDELYRVAFAHGLNYYEVPAHWSTLEVFHDLQSRRYLAIGLDNEGSMYDFDAKLSASDFTPDALRREGVR | not soluble |
| FNKELDPVQKLFVDKIREYRTKRQTSGGPVDAGPEYQQDLDRELFKLKQMYGKADMNTFPNFTFEDPKFEVVEKPQS | soluble |
| MTAAADLILYNGDVHVLTDTATPADPAHSAVAIRDGRIVGLSNDYDAAFRADTGTREVDLGGRVVVPGFVDAHTHLAVLGKHGVHADLRGADSPAAATARLAERARETDAGWVLGFGYDDSQWSAALSTADLDAVSEARPVAAIREDMHTATVNGVALAEHGDEMPAADVGEDGRIVEDAVEAVYDATDPDLAGTRPLIEAAQREANERGVTAVHEMVRDSHAPRVYRELDAAGELSVRVRLNYWADHLDAVLETGLVTNHGGGMVTVGGIKTYTDGSLGGRTAKLSEPYADAPGETGQWVVDPSALAALVERADDAGLQVVAHAIGDAAVDAVLDAYEDAGERRHRIEHAELASDDAIERMADLGVVASVQPNFLKWAGSGGLYADRLGTARREASNRFADMLDAGVDVAFGSDCMPLAPLVGVHHAVTAPADAQRLSVTAALRAYTSGGARAGCREDEQGVIREGALADLTVLDASPWEHADAIADEVGVSMTVVDGAVVYDGRLEHHHHHH | not soluble |
| MSYQPTSLTVASYNLRNANGSDSARGDGWGQRYPVIAQMVQYHDFDIFGTQECFLHQLKDMKEALPGYDYIGVGRDDGKDKGEHSAIFYRTDKFDIVEKGDFWLSETPDVPSKGWDAVLPRICSWGHFKCKDTGFEFLFFNLHMDHIGKKARVESAFLVQEKMKELGRGKNLPAILTGDFNVDQTHQSYDAFVSKGVLCDSYEKCDYRYALNGTFNNFDPNSFTESRIDHIFVSPSFHVKRYGVLTDTYRSVRENSKKEDVRDCPEEITIKAYEARTPSDHFPVKVELVFDLEHHHHHH | soluble |
| MSVIIRLKNLPMTAGASDVRTFFTGLKIPDGAVHIIGGDEGEVFVGFSSDDDARLAMTKDRLMIHGAEVRLFLSSKSEQNSVIAARKNNTYTSPVYKEYVPPVPSQPTPAQEQNWNSQTAGNPYAAKAGYEASYPPQNSNATRTSFNNQNSYSNRQEISQNHQENSVKLKDPFGGDYGGYKFQQQPPPQINRYGSGPPPSKPADLSNTRSLPPVNNPPPPHPIPQFPPEKQFGNKLGNNNDVSSRENHIQGSGNERVQGGDSWRDTSFNQPPRNDFKGNYNNAYSSNKYKNNYKAPEFNNDFNGGNKFNQFPPRNAQSTDLSENRAAPPQTGRKTLMPTPQAPFQNAPAPFTNGPSDDVNRPFQTGPPGNLGRNGPPPFQAGVPPPVIQNNMGRPIAPPAAMVRPPPQNFPGGAGGALPVFQAPVMTPIVPPVNKPMGAAAVEKFYIELTRLPTDLLRPAALEAFIHPTAPLTLSSVKTVFGPGGIHMHTIIRLDSIADYATMMRRNGEQGIKIQQSDKKSFDTAIDGIPIPSVSMVPSKEQRSHEDDDKKSRRSRWENTSPIRSPRRSPLRRDNRDRSRSRSPPRRRRRSRSPRRREEHTDPTRWCVQVTNVPFRMKDEELLEWFSEKVRPAKLTRTFYSDGNASDRWVAEFSSESLMKRSFGIRTLCTGRTLRLRYIDNAKADEILKIEDVYGEGKRQMNEEARLQHEVAEKANPPSFFNAPAATRGSGPMPPLNGTAPLPSGQQNGMNVPPPNGFNGAPMRGGFVPRGGNNFSQSRGGMMGRGGHGGGGGPQNFYQNGPNNFNNGPPEQQGQFRGNQGNDGGFRGGFRGGYRGRGGGRGGFQGGSRGDDSQPSQSELMELIKSIGPRGTVLSCNGFPKDVTLEDVVEFFNDYEPDRNSIRIRRGDDGVMTGECMLACQNQENARRASMDLDGQKLRNSVISVRII | not soluble |
| MAHHHHHHMADWQGWYQRMLDVHNRNVSLRCRICDLQRLDGNGVQFVDMQTERRLRILAQHRVGMGVLKLDADKYEDQADNVTFGTTKLSELLADARKAQLGEEYWPSVELKVRKPSGQSKAHYSLIDNERIEKRSRELYEKYRDAKKRSLFVTPMETWLEVKGMQVRKSVDNADEDGYTLDALQDMMDGDDEDKV | not soluble |
| MSLLLEPSAAMIKEQKLYREMGLTDEEFARIEAILGRLPNYTETGIFAVMWSEHCSYKNSKPVLKKFPTDGPHVLQGPGEGAGIVDIGDGLAVAFKIESHNHPSAIEPYQGAATGVGGIIRDVFSMGARPIALLNSLRFGELTSPRVKYLFEQVVAGIAGYGNCVGIPTVGGEVQFDPAYEGNPLVNAMCVGIIRHEDIQRGVATGVGNTVMYVGAKTGRDGIHGATFASEELSEQSEAKRPAVQVGDPFMEKLLLEACLEAVKSDALVGIQDMGAAGLTSSSAEMASKGGFGIEMNLDLVPQREAGMTPYEMMLSESQERMLLVVKQGCEDEIAAIFAKYGLEAKAIGKVTDDKMLRLFFRGEVAAEIPVDALAKDAPVYHKPSAEPAYYREFQAMPPYIPHIEDYNQTLLGLLAQPTIASKEWVYDQYDYMVRTNTVVAPGSDAAVVRIRGTNKALALTTDCNSRYLYLDPETGGKIAVAEAARNVVCSGAKPLAITDCLNFGSPEKPEIFWQLEKAVDGMSEACRALGTPVVSGNVSLYNETNGEAVYPTPVVGMVGLIDDLSHITTQSFKQAGDLIYVIGEAKPEFGGSELQKWLEGRIFGKAPEIDLEVEASRQRQLLAAIRAGVVASAHDIAEGGLAVALAECVMGASGLGAKVTIGGDLVSELFSETQSRFVVSVKKEQKEAFEQLVEAKQIGEVTDDGAFVVNGEHGETLIHLSVAKMRNVWKGAIPCLLKSKD | not soluble |
| MKEKSSVEVRLDKWLWAARFYKTRAMAREMIEGGKVHYNGQRSKPSKIVELNATLTLRQGNDERTVIVKAITEQRRPASEAVALYEETAESVEKREKMAQARKLNALTMPHPDRRPDKKERRDLLRFKHGDSE | not soluble |
| MKILVALAVFFLVSTQLFAEEIGANDDLNYWSDWYDSDQIKEELPEPFEHLLQRIARRPKPQQFFGLMGKRDADSSIEKQVALLKALYGHGQISHKRHKTDSFVGLMGKRALNSVAYERSAMQNYERRRLEHHHHHH | not soluble |

— the DeepSol protein solubility set
